According to patent US20260284139 (published 2026):
Like-named read-outs stand apart in the source and are kept apart here. Where no end group is shown, it is not given here. [ ]: non-standard residue; d: D form. The star is where a group is joined. Octanoyl = CCCCCCCC(=O)*

Assays:
[1] = target: T1, β-catenin (full-length recombinant) (human, UniProt P35222)
T1 chain: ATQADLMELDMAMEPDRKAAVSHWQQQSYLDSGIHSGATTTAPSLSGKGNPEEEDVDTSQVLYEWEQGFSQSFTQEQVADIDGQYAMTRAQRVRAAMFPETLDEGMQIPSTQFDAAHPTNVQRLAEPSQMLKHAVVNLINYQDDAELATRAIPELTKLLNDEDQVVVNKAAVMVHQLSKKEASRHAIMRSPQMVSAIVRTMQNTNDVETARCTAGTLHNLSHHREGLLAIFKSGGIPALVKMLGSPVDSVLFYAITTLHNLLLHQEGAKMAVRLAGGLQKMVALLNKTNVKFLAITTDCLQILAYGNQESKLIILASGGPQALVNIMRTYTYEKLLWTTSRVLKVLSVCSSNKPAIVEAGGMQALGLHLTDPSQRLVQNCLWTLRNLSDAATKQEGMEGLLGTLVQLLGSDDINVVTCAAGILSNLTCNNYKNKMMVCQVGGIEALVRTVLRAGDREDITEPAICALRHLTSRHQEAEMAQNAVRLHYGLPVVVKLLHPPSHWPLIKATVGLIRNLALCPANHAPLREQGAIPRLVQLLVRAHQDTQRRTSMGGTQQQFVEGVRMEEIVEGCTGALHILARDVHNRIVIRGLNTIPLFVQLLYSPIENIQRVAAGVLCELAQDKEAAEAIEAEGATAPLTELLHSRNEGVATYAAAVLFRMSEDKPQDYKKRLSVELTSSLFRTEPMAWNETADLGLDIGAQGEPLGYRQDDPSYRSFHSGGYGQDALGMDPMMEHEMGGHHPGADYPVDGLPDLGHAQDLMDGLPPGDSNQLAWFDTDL

[2] = target: T1, β-catenin (full-length recombinant); assay: FP, room temperature
[3] = target: T1, β-catenin (full-length recombinant); assay: competition, ALPHA assay vs BCL9 HD2 peptide, pH 6.5

Row | Binder | Kd [1] [nM] | Kd [2] [nM] | IC50 [3] [nM]
1 | BCL9 (protein) MHSSNPKVRSSPSGNTQSSPKSKQEVMVRPPTVMSPSGNPQLDSKFSNQGKQGGSASQSQPSPCDSKSGGHTPKALPGPGGSMGLKNGAGNGAKGKGKRERSISADSFDQRDPGTPNDDSDIKECNSADHIKSQDSQHTPHSMTPSNATAPRSSTPSHGQTTATEPTPAQKTPAKVVYVFSTEMANKAAEAVLKGQVETIVSFHIQNISNNKTERSTAPLNTQISALRNDPKPLPQQPPAPANQDQNSSQNTRLQPTPPIPAPAPKPAAPPRPLDRESPGVENKLIPSVGSPASSTPLPPDGTGPNSTPNNRAVTPVSQGSNSSSADPKAPPPPPVSSGEPPTLGENPDGLSQEQLEHRERSLQTLRDIQRMLFPDEKEFTGAQSGGPQQNPGVLDGPQKKPEGPIQAMMAQSQSLGKGPGPRTDVGAPFGPQGHRDVPFSPDEMVPPSMNSQSGTIGPDHLDHMTPEQIAWLKLQQEFYEEKRRKQEQVVVQQCSLQDMMVHQHGPRGVVRGPPPPYQMTPSEGWAPGGTEPFSDGINMPHSLPPRGMAPHPNMPGSQMRLPGFAGMINSEMEGPNVPNPASRPGLSGVSWPDDVPKIPDGRNFPPGQGIFSGPGRGERFPNPQGLSEEMFQQQLAEKQLGLPPGMAMEGIRPSMEMNRMIPGSQRHMEPGNNPIFPRIPVEGPLSPSRGDFPKGIPPQMGPGRELEFGMVPSGMKGDVNLNVNMGSNSQMIPQKMREAGAGPEEMLKLRPGGSDMLPAQQKMVPLPFGEHPQQEYGMGPRPFLPMSQGPGSNSGLRNLREPIGPDQRTNSRLSHMPPLPLNPSSNPTSLNTAPPVQRGLGRKPLDISVAGSQVHSPGINPLKSPTMHQVQSPMLGSPSGNLKSPQTPSQLAGMLAGPAAAASIKSPPVLGSAAASPVHLKSPSLPAPSPGWTSSPKPPLQSPGIPPNHKAPLTMASPAMLGNVESGGPPPPTASQPASVNIPGSLPSSTPYTMPPEPTLSQNPLSIMMSRMSKFAMPSSTPLYHDAIKTVASSDDDSPPARSPNLPSMNNMPGMGINTQNPRISGPNPVVPMPTLSPMGMTQPLSHSNQMPSPNAVGPNIPPHGVPMGPGLMSHNPIMGHGSQEPPMVPQGRMGFPQGFPPVQSPPQQVPFPHNGPSGGQGSFPGGMGFPGEGPLGRPSNLPQSSADAALCKPGGPGGPDSFTVLGNSMPSVFTDPDLQEVIRPGATGIPEFDLSRIIPSEKPSQTLQYFPRGEVPGRKQPQGPGPGFSHMQGMMGEQAPRMGLALPGMGGPGPVGTPDIPLGTAPSMPGHNPMRPPAFLQQGMMGPHHRMMSPAQSTMPGQPTLMSNPAAAVGMIPGKDRGPAGLYTHPGPVGSPGMMMSMQGMMGPQQNIMIPPQMRPRGMAADVGMGGFSQGPGNPGNMMF | ~200 | – | –
2 | Octanoyl-[dF][dR][dW][dL][dL][dR][dQ][dL][dA][dR][dL][dA][dQ][dL][dA][dK][dL][dT][dP][dV][dK][dL][dT][dP][dV] (also: FITC conjugate used in the FP assay) [ST316] | – | ~126 | ~1000
